Test results: US20250197490A1, “ANTI-CORTICOTROPIN-RELEASING HORMONE ANTIBODIES AND USE IN CONGENITAL ADRENAL HYPERPLASIA” (HBM ALPHA THERAPEUTICS, INC., priority 2021, published 2025)

Columns and labels:
[1] = target: biotinylated CRH (human and mouse); assay: Octet in-tandem competition on captured CRH; row = 1st mAb (control hIgG1); competitor (2nd mAb) PR005660
[2] = target: biotinylated CRH (human and mouse); assay: Octet in-tandem competition on captured CRH; row = 1st mAb (control hIgG1); competitor (2nd mAb) PR006669
[3] = target: biotinylated CRH (human and mouse); assay: Octet in-tandem competition on captured CRH; row = 1st mAb (control hIgG1); competitor (2nd mAb) PR301777
[4] = target: biotinylated CRH (human and mouse); assay: Octet in-tandem competition on captured CRH; row = 1st mAb (control hIgG1); competitor (2nd mAb) PR302334
[5] = target: biotinylated CRH (human and mouse); assay: Octet in-tandem competition on captured CRH; row = 1st mAb (control hIgG1); competitor (2nd mAb) PR303394
[6] = target: biotinylated CRH (human and mouse); assay: Octet in-tandem competition on captured CRH; row = 1st mAb (control hIgG1); competitor (2nd mAb) PR302309-8
[7] = target: biotinylated CRH (human and mouse); assay: Octet in-tandem competition on captured CRH; row = 1st mAb (control hIgG1); competitor (2nd mAb) PR302341-34

biotinylated CRH (human and mouse), sequence (P01143 145-185): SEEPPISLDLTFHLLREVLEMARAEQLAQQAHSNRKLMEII

Substance “unrelated human IgG1 (negative control) (antibody)” has a % Inhibition [1] of 12%, a % Inhibition [2] of 9% and a % Inhibition [3] of 9%. It also gave a % Inhibition [4] of 8%, a % Inhibition [5] of 10% and a % Inhibition [6] of 15%. The % Inhibition [7] was 12%.
